From paper PMC12084551 come the findings set out here.

pKd: −log10 of the molar value.

Broadly, the stoichiometry N is the number of molecules, sites or subunits per partner or assembly. The pKd is the Kd on a negative log10 scale, so that one unit is a factor of ten. A lower pKd goes with a large Kd.

The first experiment addresses full-length GAS2 (GAS2-FL (1–314)) (mouse) (UniProt P11862). Nature of the experiment: SEC; Superdex 75 HR 10/300; 30 mM Tris-HCl pH 8.0, 300 mM KCl, 100 μM ZnCl2, 0.1% β-ME; molecular weight from a calibration with BSA, carbonic anhydrase and cytochrome c. For orientation: In gel filtration, larger molecules generally elute earlier.
“full-length GAS2 (GAS2-FL (1–314)) (from UniProt P11862 1-314) (natural protein)” had a stoichiometry N of 2.

In a further experiment the target is microtubules (MTs) polymerized from porcine brain tubulin (pig (porcine brains)) (UniProt Q2XVP4). Put plainly: co-sedimentation; GAS2 proteins at different concentrations with Taxol-stabilized MTs in BRB80 with 1 mM GTP, room temperature, 20 min; 186,000 × g, 10 min, 25 °C; SDS-PAGE, one site-specific binding fit.
“GAS2-GAR domain (residues 198–314) (from UniProt P11862 198-314) (domain or fragment)” had a pKd of 6.16.
With “GAS2-GAR W257E (from UniProt P11862 198-314) (domain or fragment)”, the negative logarithm of the Kd (pKd) was 4.57.
Substance “GAS2-GAR R242E (from UniProt P11862 198-314) (domain or fragment)” showed a pKd of 5.30.
Same read-out and setting: to “GAS2-GAR R252E (from UniProt P11862 198-314) (domain or fragment)” belongs 4.33; to “GAS2-GAR G255E (from UniProt P11862 198-314) (domain or fragment)”, 5.02; to “GAS2-GAR G255A (from UniProt P11862 198-314) (domain or fragment)”, 5.57.
On to “GAS2-GAR K266E (from UniProt P11862 198-314) (domain or fragment)”, for which the negative-log Kd (pKd) was 4.97.
